Biological target: ppia_human PPIA (UniProt P62937)
Sequence (P62937 whole entry, looked up): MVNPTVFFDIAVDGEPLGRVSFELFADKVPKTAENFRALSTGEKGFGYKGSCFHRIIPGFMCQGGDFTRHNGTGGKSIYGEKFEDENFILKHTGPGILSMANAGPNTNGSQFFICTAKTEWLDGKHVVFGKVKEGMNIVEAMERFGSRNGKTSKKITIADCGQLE

Row | Substance | effect of a mutation on the interaction
1 | Nucleoprotein (Human SARS coronavirus), P59595 Q307A | decreasing interaction strength
2 | Nucleoprotein (Human SARS coronavirus), P59595 Q307D | decreasing interaction strength
3 | Nucleoprotein (Human SARS coronavirus), P59595 I305A | decreasing interaction strength
4 | Nucleoprotein (Human SARS coronavirus), P59595 W302A | decreasing interaction strength
